Key:
[1] = biological target: soluble recombinant α5β1 integrin (R&D Systems) (UniProt P08648 42-995; P05556 21-728)
[2] = biological target: purified soluble αvβ5 integrin (Millipore) (UniProt P06756 31-992; P18084 24-719)
[3] = biological target: purified soluble αvβ3 integrin (Millipore) (UniProt P06756 31-992; P05106 27-718)
purified soluble αvβ3 integrin (Millipore), sequence (P06756 31-992, chain 1 of 2): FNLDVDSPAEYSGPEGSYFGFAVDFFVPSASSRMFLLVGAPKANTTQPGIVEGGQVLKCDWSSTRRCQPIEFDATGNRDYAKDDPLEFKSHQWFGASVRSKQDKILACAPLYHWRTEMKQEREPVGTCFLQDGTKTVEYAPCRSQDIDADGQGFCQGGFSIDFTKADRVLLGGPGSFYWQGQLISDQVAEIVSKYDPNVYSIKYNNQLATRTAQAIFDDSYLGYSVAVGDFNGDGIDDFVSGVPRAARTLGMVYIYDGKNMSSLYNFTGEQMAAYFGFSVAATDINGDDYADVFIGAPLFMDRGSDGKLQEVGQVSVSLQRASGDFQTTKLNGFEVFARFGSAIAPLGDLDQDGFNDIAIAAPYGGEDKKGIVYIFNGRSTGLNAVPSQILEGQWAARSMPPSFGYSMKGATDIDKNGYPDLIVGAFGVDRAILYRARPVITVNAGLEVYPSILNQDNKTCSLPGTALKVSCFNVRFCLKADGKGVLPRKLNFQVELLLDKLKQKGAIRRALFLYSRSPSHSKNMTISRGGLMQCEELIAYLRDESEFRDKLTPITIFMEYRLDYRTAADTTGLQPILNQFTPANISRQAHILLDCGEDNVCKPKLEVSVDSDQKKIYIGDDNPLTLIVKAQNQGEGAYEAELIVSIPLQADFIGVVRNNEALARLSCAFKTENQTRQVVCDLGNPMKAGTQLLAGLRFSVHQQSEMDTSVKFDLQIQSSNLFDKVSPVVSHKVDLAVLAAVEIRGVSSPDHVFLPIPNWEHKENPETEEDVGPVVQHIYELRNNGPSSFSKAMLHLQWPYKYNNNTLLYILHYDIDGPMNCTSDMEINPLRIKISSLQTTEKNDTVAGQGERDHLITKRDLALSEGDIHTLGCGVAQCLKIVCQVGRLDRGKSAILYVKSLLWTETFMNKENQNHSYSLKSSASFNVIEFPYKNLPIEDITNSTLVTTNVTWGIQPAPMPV
purified soluble αvβ3 integrin (Millipore), sequence (P05106 27-718, chain 2 of 2): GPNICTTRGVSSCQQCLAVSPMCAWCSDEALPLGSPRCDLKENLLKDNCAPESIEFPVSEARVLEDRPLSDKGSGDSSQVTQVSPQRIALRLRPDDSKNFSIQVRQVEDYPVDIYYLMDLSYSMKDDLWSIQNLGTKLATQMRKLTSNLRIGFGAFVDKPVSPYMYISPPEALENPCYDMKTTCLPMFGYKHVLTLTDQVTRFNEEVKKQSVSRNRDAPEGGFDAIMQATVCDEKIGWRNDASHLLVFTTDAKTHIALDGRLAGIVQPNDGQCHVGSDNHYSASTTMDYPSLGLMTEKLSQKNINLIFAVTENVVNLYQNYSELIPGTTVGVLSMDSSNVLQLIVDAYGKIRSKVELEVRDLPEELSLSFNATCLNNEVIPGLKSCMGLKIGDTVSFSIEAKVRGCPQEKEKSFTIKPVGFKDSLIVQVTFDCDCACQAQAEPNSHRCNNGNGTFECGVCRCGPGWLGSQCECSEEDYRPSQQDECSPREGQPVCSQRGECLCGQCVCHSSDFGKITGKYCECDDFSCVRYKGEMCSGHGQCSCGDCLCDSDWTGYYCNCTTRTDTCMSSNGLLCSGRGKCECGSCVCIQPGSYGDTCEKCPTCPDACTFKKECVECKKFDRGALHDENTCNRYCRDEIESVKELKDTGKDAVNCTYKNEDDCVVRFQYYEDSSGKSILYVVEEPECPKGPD

soluble recombinant α5β1 integrin (R&D Systems), sequence (P08648 42-995, chain 1 of 2): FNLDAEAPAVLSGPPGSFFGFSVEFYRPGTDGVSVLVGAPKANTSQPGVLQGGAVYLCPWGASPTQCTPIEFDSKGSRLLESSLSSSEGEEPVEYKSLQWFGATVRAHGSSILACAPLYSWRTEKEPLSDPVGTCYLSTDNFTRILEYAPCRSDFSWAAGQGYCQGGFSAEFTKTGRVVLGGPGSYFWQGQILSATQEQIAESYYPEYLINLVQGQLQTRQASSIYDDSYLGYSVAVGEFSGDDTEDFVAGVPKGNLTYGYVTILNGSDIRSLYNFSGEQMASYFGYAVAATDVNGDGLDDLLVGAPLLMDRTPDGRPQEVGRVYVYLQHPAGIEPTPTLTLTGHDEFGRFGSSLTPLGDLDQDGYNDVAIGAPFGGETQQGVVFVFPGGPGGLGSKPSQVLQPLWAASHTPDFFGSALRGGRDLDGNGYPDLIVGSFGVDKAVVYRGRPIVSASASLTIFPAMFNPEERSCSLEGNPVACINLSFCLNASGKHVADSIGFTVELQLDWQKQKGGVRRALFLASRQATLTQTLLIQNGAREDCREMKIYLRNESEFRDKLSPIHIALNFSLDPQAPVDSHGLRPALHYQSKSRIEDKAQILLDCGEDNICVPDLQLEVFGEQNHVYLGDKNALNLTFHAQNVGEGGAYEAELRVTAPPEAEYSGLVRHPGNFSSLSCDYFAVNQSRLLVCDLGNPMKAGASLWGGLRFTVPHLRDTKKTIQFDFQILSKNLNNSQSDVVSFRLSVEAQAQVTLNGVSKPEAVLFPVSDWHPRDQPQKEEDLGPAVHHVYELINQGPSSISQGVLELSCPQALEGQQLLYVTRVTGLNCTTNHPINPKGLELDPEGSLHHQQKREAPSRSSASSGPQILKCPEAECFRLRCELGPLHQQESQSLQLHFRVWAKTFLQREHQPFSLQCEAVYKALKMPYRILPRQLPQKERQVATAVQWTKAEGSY
soluble recombinant α5β1 integrin (R&D Systems), sequence (P05556 21-728, chain 2 of 2): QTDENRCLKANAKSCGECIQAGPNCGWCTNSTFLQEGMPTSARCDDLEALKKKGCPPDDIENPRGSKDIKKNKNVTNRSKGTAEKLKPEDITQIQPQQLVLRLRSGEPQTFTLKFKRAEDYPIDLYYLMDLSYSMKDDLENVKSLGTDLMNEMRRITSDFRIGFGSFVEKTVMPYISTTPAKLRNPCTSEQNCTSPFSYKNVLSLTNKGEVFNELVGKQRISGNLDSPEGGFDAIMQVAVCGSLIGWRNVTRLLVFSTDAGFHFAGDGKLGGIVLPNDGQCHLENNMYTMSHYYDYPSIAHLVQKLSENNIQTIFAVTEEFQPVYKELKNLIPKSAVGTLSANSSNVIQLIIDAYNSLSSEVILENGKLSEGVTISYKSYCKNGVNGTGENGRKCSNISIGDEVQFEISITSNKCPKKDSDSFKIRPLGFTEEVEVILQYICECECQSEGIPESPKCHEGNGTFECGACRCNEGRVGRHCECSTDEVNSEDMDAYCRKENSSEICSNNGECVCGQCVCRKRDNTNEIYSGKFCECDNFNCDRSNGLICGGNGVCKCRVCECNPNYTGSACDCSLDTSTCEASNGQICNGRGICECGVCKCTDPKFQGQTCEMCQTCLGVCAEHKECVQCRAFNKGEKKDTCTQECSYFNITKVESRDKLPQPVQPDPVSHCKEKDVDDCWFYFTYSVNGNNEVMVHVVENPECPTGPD
purified soluble αvβ5 integrin (Millipore), sequence (P06756 31-992, chain 1 of 2): as the sequence (P06756 31-992, chain 1 of 2) above
purified soluble αvβ5 integrin (Millipore), sequence (P18084 24-719, chain 2 of 2): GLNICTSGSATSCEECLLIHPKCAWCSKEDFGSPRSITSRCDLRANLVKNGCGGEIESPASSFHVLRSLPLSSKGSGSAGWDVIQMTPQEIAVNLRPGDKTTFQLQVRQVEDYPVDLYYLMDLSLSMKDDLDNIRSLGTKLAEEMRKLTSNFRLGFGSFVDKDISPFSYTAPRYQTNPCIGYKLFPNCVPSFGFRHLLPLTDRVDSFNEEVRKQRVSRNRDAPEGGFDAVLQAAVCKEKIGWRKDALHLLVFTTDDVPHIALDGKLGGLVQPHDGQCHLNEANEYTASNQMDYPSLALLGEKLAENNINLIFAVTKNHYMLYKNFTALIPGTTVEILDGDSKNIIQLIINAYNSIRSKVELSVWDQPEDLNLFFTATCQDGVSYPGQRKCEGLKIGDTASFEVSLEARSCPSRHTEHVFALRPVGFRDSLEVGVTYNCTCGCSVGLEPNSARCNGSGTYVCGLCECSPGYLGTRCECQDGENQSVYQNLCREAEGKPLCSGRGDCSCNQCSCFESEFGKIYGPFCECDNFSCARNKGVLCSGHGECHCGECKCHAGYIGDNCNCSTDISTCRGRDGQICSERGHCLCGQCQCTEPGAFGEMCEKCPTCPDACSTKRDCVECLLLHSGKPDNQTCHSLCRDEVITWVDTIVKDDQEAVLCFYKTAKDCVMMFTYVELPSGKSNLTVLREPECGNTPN

B1: Contortrostatin (CN), native, purified from Agkistrodon contortrix contortrix venom (ligand)
chain: DAPANPCCDAATCKLTTGSQCADGLCCDQCKFMKEGTVCRRARGDDLDDYCNGISAGCPRNPFH
With B1 the Kd [1] was 191 nM, the Kd [2] was 19.5 nM and the Kd [3] was 6.6 nM.
